Results taken from publication PMC4601640 (2015).

T1: CK2-phosphorylated human full-length p50^Cdc37 (human, UniProt Q16543 1-378, phosphoserine at 13 (shown by Western blot))
T1 chain: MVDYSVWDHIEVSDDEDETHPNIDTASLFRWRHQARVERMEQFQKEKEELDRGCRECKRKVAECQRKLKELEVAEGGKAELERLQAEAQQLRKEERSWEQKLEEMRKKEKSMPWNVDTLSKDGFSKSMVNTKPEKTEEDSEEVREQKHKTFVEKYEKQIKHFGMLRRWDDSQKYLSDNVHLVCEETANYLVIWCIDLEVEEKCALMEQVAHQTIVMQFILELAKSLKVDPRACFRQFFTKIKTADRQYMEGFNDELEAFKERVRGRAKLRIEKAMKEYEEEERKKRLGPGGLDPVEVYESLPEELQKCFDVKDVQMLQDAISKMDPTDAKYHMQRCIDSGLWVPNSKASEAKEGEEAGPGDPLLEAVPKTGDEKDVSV

B1: human full-length Hsp90β (natural protein)
chain: not shown
B2: CK2-phosphorylated human full-length Hsp90β (natural protein)
chain: not shown
modifications: phosphoserine at 255 (shown by Western blot); Ser226 named as a CK2 site, its phosphorylation could not be verified

Experiments:
[1] = target: T1, CK2-phosphorylated human full-length …; assay: ITC; phosphorylated Cdc37
[2] = target: T1, CK2-phosphorylated human full-length …; assay: ITC; both phosphorylated

| Binder | Kd [1] [nM] | Kd [2] [nM] |
| --- | --- | --- |
| B1 | 1400 | – |
| B2 | – | 1900 |
